From the supplement of paper PMC10567573

B1: TBX6 (parent)
chain: AFLELPHGSGGSGYPAAPPAVPFA

Variants of: B1
Test: protein stability index of a GFP-peptide fusion (GPS, HEK-293T) (PSI 1-6); higher = more stable
Settings: c terminus: a fixed tail appended
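Note: lentivirally expressed fusions sorted by FACS into six bins by GFP to DsRed ratio, PSI derived from sequencing read proportions per bin multiplied by bin number.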

Variant	protein stability index
AFLELPHGSGRSGYPAAPPAVPFA	2.3
AFLELPHGSGSSGYPAAPPAVPFA	2.7
AFLELPHGSGTSGYPAAPPAVPFA	2.11
AFLELPHGSGVSGYPAAPPAVPFA	2.12
AFLELPHGSGWSGYPAAPPAVPFA	2.32
AFLELPHGSGYSGYPAAPPAVPFA	1.95
AFLELPHGSGGAGYPAAPPAVPFA	2.33
AFLELPHGSGGCGYPAAPPAVPFA	2.12
AFLELPHGSGGDGYPAAPPAVPFA	3
AFLELPHGSGGEGYPAAPPAVPFA	2.74
AFLELPHGSGGFGYPAAPPAVPFA	1.91
AFLELPHGSGGGGYPAAPPAVPFA	2.31
AFLELPHGSGGHGYPAAPPAVPFA	2.22
AFLELPHGSGGIGYPAAPPAVPFA	2.28
AFLELPHGSGGKGYPAAPPAVPFA	2.17
AFLELPHGSGGLGYPAAPPAVPFA	2.18
AFLELPHGSGGMGYPAAPPAVPFA	2
AFLELPHGSGGNGYPAAPPAVPFA	2.62
AFLELPHGSGGPGYPAAPPAVPFA	2.08
AFLELPHGSGGQGYPAAPPAVPFA	2.29
AFLELPHGSGGRGYPAAPPAVPFA	2.27
AFLELPHGSGGTGYPAAPPAVPFA	2.4
AFLELPHGSGGVGYPAAPPAVPFA	2.55
AFLELPHGSGGWGYPAAPPAVPFA	2.55

Variant	protein stability index
AFLELPHGSGGYGYPAAPPAVPFA	1.63
AFLELPHGSGGSAYPAAPPAVPFA	2.87
AFLELPHGSGGSCYPAAPPAVPFA	2.83
AFLELPHGSGGSDYPAAPPAVPFA	3.02
AFLELPHGSGGSEYPAAPPAVPFA	2.61
AFLELPHGSGGSFYPAAPPAVPFA	2.21
AFLELPHGSGGSHYPAAPPAVPFA	2.23
AFLELPHGSGGSIYPAAPPAVPFA	2.51
AFLELPHGSGGSKYPAAPPAVPFA	2.58
AFLELPHGSGGSLYPAAPPAVPFA	1.83
AFLELPHGSGGSMYPAAPPAVPFA	2.07
AFLELPHGSGGSNYPAAPPAVPFA	2.4
AFLELPHGSGGSQYPAAPPAVPFA	2.89
AFLELPHGSGGSRYPAAPPAVPFA	2.22
AFLELPHGSGGSSYPAAPPAVPFA	2.44
AFLELPHGSGGSTYPAAPPAVPFA	2.52
AFLELPHGSGGSVYPAAPPAVPFA	2.42
AFLELPHGSGGSWYPAAPPAVPFA	1.73
AFLELPHGSGGSYYPAAPPAVPFA	1.66
AFLELPHGSGGSGAPAAPPAVPFA	3.1
AFLELPHGSGGSGCPAAPPAVPFA	2.99
AFLELPHGSGGSGDPAAPPAVPFA	3.33
AFLELPHGSGGSGEPAAPPAVPFA	3.8
AFLELPHGSGGSGFPAAPPAVPFA	2.77

Variant	protein stability index
AFLELPHGSGGSGGPAAPPAVPFA	3.04
AFLELPHGSGGSGHPAAPPAVPFA	2.5
AFLELPHGSGGSGIPAAPPAVPFA	2.65
AFLELPHGSGGSGKPAAPPAVPFA	2.78
AFLELPHGSGGSGLPAAPPAVPFA	2.85
AFLELPHGSGGSGMPAAPPAVPFA	2.84
AFLELPHGSGGSGNPAAPPAVPFA	3.54
AFLELPHGSGGSGQPAAPPAVPFA	3.06
AFLELPHGSGGSGRPAAPPAVPFA	3.03
AFLELPHGSGGSGSPAAPPAVPFA	3.25
AFLELPHGSGGSGTPAAPPAVPFA	3.48
AFLELPHGSGGSGVPAAPPAVPFA	2.73
AFLELPHGSGGSGWPAAPPAVPFA	2.21
AFLELPHGSGGSGYAAAPPAVPFA	2.27
AFLELPHGSGGSGYCAAPPAVPFA	1.8
AFLELPHGSGGSGYDAAPPAVPFA	2.81
AFLELPHGSGGSGYEAAPPAVPFA	3.03
AFLELPHGSGGSGYFAAPPAVPFA	1.54
AFLELPHGSGGSGYGAAPPAVPFA	2.21
AFLELPHGSGGSGYHAAPPAVPFA	1.93
AFLELPHGSGGSGYIAAPPAVPFA	2.01
AFLELPHGSGGSGYKAAPPAVPFA	2.15
AFLELPHGSGGSGYLAAPPAVPFA	1.94
AFLELPHGSGGSGYMAAPPAVPFA	1.77

Variant	protein stability index
AFLELPHGSGGSGYNAAPPAVPFA	2.48
AFLELPHGSGGSGYQAAPPAVPFA	2.01
AFLELPHGSGGSGYRAAPPAVPFA	1.88
AFLELPHGSGGSGYSAAPPAVPFA	2.38
AFLELPHGSGGSGYTAAPPAVPFA	2.56
AFLELPHGSGGSGYVAAPPAVPFA	2.08
AFLELPHGSGGSGYWAAPPAVPFA	1.99
AFLELPHGSGGSGYYAAPPAVPFA	2.23
AFLELPHGSGGSGYPCAPPAVPFA	1.61
AFLELPHGSGGSGYPDAPPAVPFA	2.09
AFLELPHGSGGSGYPEAPPAVPFA	3.49
AFLELPHGSGGSGYPFAPPAVPFA	2.18
AFLELPHGSGGSGYPGAPPAVPFA	2.09
AFLELPHGSGGSGYPHAPPAVPFA	2.21
AFLELPHGSGGSGYPIAPPAVPFA	2.24
AFLELPHGSGGSGYPKAPPAVPFA	2.99
AFLELPHGSGGSGYPLAPPAVPFA	2.32
AFLELPHGSGGSGYPMAPPAVPFA	2.17
AFLELPHGSGGSGYPNAPPAVPFA	2.43
AFLELPHGSGGSGYPQAPPAVPFA	2.77
AFLELPHGSGGSGYPRAPPAVPFA	2.29
AFLELPHGSGGSGYPSAPPAVPFA	2.22
